The record followed here is publication PMC8360651.

The data set deals with VHH 9E (humanized single-domain antibody) (synthetic humanized VHH library NaLi-H1). The data set can be described thus: ELISA. The conditions noted are these: ELISA: biotinylated DNA on avidin plates, 2 h binding, PBS/PBST washes (competition mix at RT). EMSA: PBS, 10% glycerol, RT 2 h, 8% native PAGE in TAE at 4 C. …. (In an ELISA, binding on a coated surface is turned into a signal by an enzyme label.)

In the case of “AAAATACATTTATATATATCCTAGTCCGACCGCAGGATCCTATAA / TTATAGGATCCTGCGGTCGGACTAGGATATATATAAATGTA [41-mer dsDNA target (BIOTIN-R-CELL + O3-CELL)]”, the binding signal (pH 5) was 82%. Moreover, the K half (serial dilutions of VHH on immobilized dsDNA, relative binding affinity) was found to be 200 nM.
